The results in this text go back to publication PMC5105168, “AKAP95 regulates splicing through scaffolding RNAs and RNA processing factors” (Nature Communications, 2016).

Sequences and labels used below:
B2: purified Flag-tagged AKAP95 (natural protein)
chain: not shown
notes: AKAP95 (AKAP8) cDNA in pFastBac1; also called F-AKAP95; FLAG-AKAP95; source: sf9 cells (baculovirus), purified (anti-FLAG M2 agarose, FLAG peptide elution)

In test [1] the target is B2. As to the kind of experiment: pull-down; GST fusions bound to glutathione resin, purified F-AKAP95 proteins in solution, BC200, 0.1% NP40, immunoblot. The conditions noted are these: both partners purified.
For test [2], the target named is T1, purified AKAP95-MBP fusion protein (human, UniProt O43823 1-692).
T1 construct: AKAP95 (AKAP8); source: sf9 cells (baculovirus), purified on amylose resin, kept on the resin
T1 sequence (O43823 whole entry, the tested form may be a part): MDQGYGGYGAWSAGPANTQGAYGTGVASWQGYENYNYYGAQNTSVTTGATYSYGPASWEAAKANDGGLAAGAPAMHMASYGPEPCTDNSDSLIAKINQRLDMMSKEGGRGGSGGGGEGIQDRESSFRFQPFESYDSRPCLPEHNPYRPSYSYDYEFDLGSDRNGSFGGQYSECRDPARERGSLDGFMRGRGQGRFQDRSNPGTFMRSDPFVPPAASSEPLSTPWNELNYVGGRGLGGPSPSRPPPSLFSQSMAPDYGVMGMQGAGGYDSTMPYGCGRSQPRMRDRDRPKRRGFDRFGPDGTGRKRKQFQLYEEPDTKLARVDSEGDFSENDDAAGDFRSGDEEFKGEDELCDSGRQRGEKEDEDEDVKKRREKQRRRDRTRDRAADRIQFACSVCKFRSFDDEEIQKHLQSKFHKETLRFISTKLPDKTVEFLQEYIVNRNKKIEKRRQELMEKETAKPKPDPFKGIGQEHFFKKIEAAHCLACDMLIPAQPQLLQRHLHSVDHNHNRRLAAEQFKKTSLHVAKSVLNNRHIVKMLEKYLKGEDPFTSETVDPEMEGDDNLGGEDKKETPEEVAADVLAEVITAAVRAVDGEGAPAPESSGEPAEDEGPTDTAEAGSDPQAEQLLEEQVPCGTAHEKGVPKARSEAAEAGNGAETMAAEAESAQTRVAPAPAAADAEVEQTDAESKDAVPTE
As to the kind of experiment: pull-down; purified MBP or AKAP95-MBP bound to amylose resin, purified F-AKAP95 in solution, BC200, 0.05% NP40, immunoblot. The following applies: both partners purified.

B1: GST-hnRNP H1 (natural protein, human (cDNA from 293 cells), UniProt P31943 1-449, looked up)
chain: MMLGTEGGEGFVVKVRGLPWSCSADEVQRFFSDCKIQNGAQGIRFIYTREGRPSGEAFVELESEDEVKLALKKDRETMGHRYVEVFKSNNVEMDWVLKHTGPNSPDTANDGFVRLRGLPFGCSKEEIVQFFSGLEIVPNGITLPVDFQGRSTGEAFVQFASQEIAEKALKKHKERIGHRYIEIFKSSRAEVRTHYDPPRKLMAMQRPGPYDRPGAGRGYNSIGRGAGFERMRRGAYGGGYGGYDDYNGYNDGYGFGSDRFGRDLNYCFSGMSDHRYGDGGSTFQSTTGHCVHMRGLPYRATENDIYNFFSPLNPVRVHIEIGPDGRVTGEADVEFATHEDAVAAMSKDKANMQHRYVELFLNSTAGASGGAYEHRYVELFLNSTAGASGGAYGSQMMGGMGLSNQSSYGGPASQQLSGGYGGGYGGQSSMSGYDQVLQENSSDFQSNIA
notes: hnRNP H1, cDNA amplified from 293 cell cDNAs, cloned into pGEX-4T-1; source: E. coli BL21 (DE3), purified on glutathione sepharose 4B without elution
As for B1, the binding result in test [1] was “binds”.
Turning to B2, the binding result in test [2] is recorded as “binds”.
